Measured values taken from US20260139035A1 (published 2026).

molecular target: RBD of the SARS-CoV-2 spike protein (Cayman Chemical kit #502050) (UniProt P0DTC2 319-541)

Binder	IC50
1-58 antibody (antibody, V domains shown) VH: QVQLVQSGAEVKKPGASVRVSCKASGYSFTASYMHWVRQAPGQGLEWMAIINPGDDNTSYAQKFQGRVTLTRDTSTTTVYMELRSLRSEDTAVYYCTRSTRDYVWGNYRYTPGYYLDYWGQGTLVTVSS VL: DIRMTQSPSSLSASVGDRVTITCRASQTISNYLNWYQQKPGKAPKLLIYAASSLQSGVPSRFSGSGSGTDFTLTISSLQPEDFATYYCQQGYITPITFGQGTRLEIK	0.028 µg/mL
1-44 antibody (antibody, V domains shown) VH: EVQLVESGGGVVQPGSSLRLSCAASGFTFRSHAMHWVRQAPGKGLEGVAVIWYDGSNKYYADSVKGRFTISRDNSKNTLYLQMNSLRAEDTAVYYCAREGIAVPGNGADAFDIWGQGTMVTVSS VL: DIQMTQSPSSLSASVGDRVTITCRASQSIGNFLNWYQQKPGKAPKLLIYAASSLQSGVPSRFSGSGSGTDFTLTISSLQPEDFATYYCQQTYSTPYTFGQGTKLEIK	0.013 µg/mL
4-66 antibody (antibody, V domains shown) VH: EVQLVESGGGLVQPGGSLRLSCAASGIIVSRNYMTWVRQAPGKGLEWVSVIYSGGTTYYADSVKGRFTTSRDDSKNTLYLQMNSLRGDDTAVYYCARDPPHRRGSYWGQGTLVTVSS VL: DILMTQSPSSLSASVGDRVTITCQASQDINKYLNWYQQKPGKAPKLLIYDASNLETGVPSRFSGSGSGTDFSFTISSLQPEDVATYYCQQSDNLPPTFGQGTNVEIK	0.015 µg/mL
3-1 antibody (antibody, V domains shown) VH: EVQLVQSGAEVKKPGESLKISCKGSGYIFTNYWIGWVRQMPGKGLEWMGIINPRDSDTRYSPSFQGQVTISTDKSINTAYLQWSSLKASDTAMYYCARQQGGFGDLGAYNWFDPWGQGTLVTVSS VL: not shown	0.031 µg/mL
